# Test results as given in patent US20050004011A1, “Compositions and methods for treating bacterial infections with protein-dalbavancin complexes” (priority 2002, published 2005).
# Values joined by “and” are separate entries in the source; they are usually repeats but may differ in a detail not shown here. Identical values can stand only once. Like-named read-outs stand apart in the source and are kept apart here.
# Columns and labels:
# [1] = target: N,N′-diacetyl-Lys-D-Ala-D-Ala; assay: ITC, 25 C, HSA 430 µM present
# [2] = target: N,N′-diacetyl-Lys-D-Ala-D-Ala; assay: ITC, 25 C, apparent Kdiss plateau at high HSA
# [3] = target: N,N′-diacetyl-Lys-D-Ala-D-Ala; assay: ITC, 37 C, HSA 516 µM present
# [4] = target: Human α-glycoprotein (human) (UniProt P02763); assay: calculated from ITC Ka; antibiotic 1 µM, α-glycoprotein 1.5x10^-5 M assumed
# Chain of Human α-glycoprotein (human) (P02763 19-201): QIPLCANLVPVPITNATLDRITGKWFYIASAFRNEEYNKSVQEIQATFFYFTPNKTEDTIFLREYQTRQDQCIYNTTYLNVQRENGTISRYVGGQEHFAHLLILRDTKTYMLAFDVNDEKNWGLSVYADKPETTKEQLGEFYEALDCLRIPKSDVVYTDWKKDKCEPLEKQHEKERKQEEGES
# [5] = target: Human α-glycoprotein (human) (UniProt P02763); assay: calculated from ITC Ka; antibiotic 165 µM, α-glycoprotein 1.5x10^-5 M assumed
# [6] = target: Dog albumin (dog) (UniProt P49822); assay: ITC, 37 C, single-site model
# Chain of Dog albumin (dog) (P49822 25-608 limits assumed): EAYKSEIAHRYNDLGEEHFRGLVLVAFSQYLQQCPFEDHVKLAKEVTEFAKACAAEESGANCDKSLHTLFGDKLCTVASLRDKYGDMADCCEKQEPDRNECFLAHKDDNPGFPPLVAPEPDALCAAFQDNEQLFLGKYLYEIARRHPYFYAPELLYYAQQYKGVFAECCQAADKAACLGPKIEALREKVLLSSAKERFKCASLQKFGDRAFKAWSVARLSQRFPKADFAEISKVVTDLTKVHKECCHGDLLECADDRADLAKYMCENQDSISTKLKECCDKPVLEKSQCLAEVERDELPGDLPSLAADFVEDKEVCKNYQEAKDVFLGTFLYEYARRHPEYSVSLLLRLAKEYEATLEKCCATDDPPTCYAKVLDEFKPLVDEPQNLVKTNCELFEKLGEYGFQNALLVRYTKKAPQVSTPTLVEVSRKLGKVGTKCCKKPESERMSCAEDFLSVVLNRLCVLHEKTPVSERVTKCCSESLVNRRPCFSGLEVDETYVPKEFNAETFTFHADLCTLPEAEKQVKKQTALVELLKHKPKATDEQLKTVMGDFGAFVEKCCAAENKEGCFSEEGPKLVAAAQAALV
# [7] = target: Human α-glycoprotein (human) (UniProt P02763); assay: ITC, 37 C, single-site model
# [8] = target: Rat albumin (rat) (UniProt P02770); assay: ITC, 37 C, single-site model
# Chain of Rat albumin (rat) (P02770 25-608 limits assumed): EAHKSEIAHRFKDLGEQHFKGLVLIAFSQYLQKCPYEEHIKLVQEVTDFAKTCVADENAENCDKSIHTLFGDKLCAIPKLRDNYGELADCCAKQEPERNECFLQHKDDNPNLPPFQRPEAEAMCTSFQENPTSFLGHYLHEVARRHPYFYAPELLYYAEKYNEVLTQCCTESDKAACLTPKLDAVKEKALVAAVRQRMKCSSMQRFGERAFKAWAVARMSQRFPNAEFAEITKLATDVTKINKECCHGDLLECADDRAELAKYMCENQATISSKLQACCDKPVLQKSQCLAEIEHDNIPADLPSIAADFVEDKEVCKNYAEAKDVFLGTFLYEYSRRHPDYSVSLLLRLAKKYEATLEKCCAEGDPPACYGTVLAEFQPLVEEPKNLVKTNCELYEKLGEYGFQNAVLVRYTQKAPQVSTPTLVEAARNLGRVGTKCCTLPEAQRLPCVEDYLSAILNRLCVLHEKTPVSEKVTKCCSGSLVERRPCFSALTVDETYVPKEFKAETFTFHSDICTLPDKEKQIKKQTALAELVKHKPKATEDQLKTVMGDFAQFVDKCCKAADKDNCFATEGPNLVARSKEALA
# [9] = target: Human serum albumin (human) (UniProt P02768); assay: ITC, 37 C, single-site model
# [10] = target: N,N′-diacetyl-Lys-D-Ala-D-Ala; assay: ITC, 10 C, HSA 0 µM
# [11] = target: N,N′-diacetyl-Lys-D-Ala-D-Ala; assay: ITC, 25 C, HSA 288 µM present
# [12] = target: Human serum albumin (human) (UniProt P02768); assay: calculated from ITC Ka; antibiotic 500 µM, HSA 6x10^-4 M assumed
# [13] = target: N,N′-diacetyl-Lys-D-Ala-D-Ala; assay: ITC, 37 C, HSA 0 µM
# [14] = target: N,N′-diacetyl-Lys-D-Ala-D-Ala; assay: ITC, preliminary experiments, no serum proteins
# [15] = target: N,N′-diacetyl-Lys-D-Ala-D-Ala; assay: ITC, 25 C, HSA 104 µM present
# [16] = target: N,N′-diacetyl-Lys-D-Ala-D-Ala; assay: ITC, 25 C, HSA 34.2 µM present
# [17] = target: N,N′-diacetyl-Lys-D-Ala-D-Ala; assay: ITC, 25 C, no HSA, average
# [18] = target: Dog albumin (dog) (UniProt P49822); assay: ITC, 25 C, single-site model
# [19] = target: Human α-glycoprotein (human) (UniProt P02763); assay: ITC, 25 C, single-site model
# [20] = target: Rat albumin (rat) (UniProt P02770); assay: ITC, 25 C, single-site model
# [21] = target: Human serum albumin (human) (UniProt P02768); assay: ITC, 25 C, single-site model
# [22] = target: Bovine albumin (bovine) (UniProt P02769); assay: ITC, 25 C, single-site model
# Chain of Bovine albumin (bovine) (P02769 25-607 limits assumed): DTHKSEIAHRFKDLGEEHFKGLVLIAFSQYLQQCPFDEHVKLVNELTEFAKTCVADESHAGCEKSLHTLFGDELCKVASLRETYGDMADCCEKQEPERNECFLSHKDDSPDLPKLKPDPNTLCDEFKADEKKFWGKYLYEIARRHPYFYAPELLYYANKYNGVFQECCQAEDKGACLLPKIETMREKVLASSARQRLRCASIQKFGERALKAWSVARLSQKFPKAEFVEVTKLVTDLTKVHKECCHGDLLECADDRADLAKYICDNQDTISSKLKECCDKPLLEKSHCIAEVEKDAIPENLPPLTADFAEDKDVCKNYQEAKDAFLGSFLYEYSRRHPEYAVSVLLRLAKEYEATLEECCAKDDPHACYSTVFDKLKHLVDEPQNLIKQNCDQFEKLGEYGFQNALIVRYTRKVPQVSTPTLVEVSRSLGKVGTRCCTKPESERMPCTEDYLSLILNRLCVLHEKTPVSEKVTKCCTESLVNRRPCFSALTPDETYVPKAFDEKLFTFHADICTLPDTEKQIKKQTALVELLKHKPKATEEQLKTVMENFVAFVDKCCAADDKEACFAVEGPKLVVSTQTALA
# [23] = target: N,N′-diacetyl-Lys-D-Ala-D-Ala
# [24] = target: N,N′-diacetyl-Lys-D-Ala-D-Ala; assay: ITC, 10 C, no HSA, average
# [25] = target: Human α-glycoprotein (human) (UniProt P02763); assay: calculated from ITC Ka; antibiotic 10 µM, α-glycoprotein 1.5x10^-5 M assumed
# [26] = target: N,N′-diacetyl-Lys-D-Ala-D-Ala; remark: listed apart in the source
# [27] = target: Human serum albumin (human) (UniProt P02768); assay: calculated from ITC Ka; antibiotic 1 µM, HSA 6x10^-4 M assumed
# [28] = target: N,N′-diacetyl-Lys-D-Ala-D-Ala; remark: listed apart in the source
# [29] = target: Human α-glycoprotein (human) (UniProt P02763); assay: calculated from ITC Ka; antibiotic 100 µM, α-glycoprotein 1.5x10^-5 M assumed
# [30] = target: Human serum albumin (human) (UniProt P02768); assay: calculated from ITC Ka; antibiotic 250 µM, HSA 6x10^-4 M assumed
# [31] = target: Human α-glycoprotein (human) (UniProt P02763); assay: calculated from ITC Ka; antibiotic 500 µM, α-glycoprotein 1.5x10^-5 M assumed
# [32] = target: Human serum albumin (human) (UniProt P02768); assay: calculated from ITC Ka; antibiotic 100 µM, HSA 6x10^-4 M assumed
# [33] = target: Human serum albumin (human) (UniProt P02768); assay: calculated from ITC Ka; antibiotic 165 µM, HSA 6x10^-4 M assumed
# [34] = target: Human α-glycoprotein (human) (UniProt P02763); assay: calculated from ITC Ka; antibiotic 250 µM, α-glycoprotein 1.5x10^-5 M assumed
# [35] = target: N,N′-diacetyl-Lys-D-Ala-D-Ala; assay: ITC, 37 C, no HSA, average
# [36] = target: Human serum albumin (human) (UniProt P02768); assay: calculated from ITC Ka; antibiotic 10 µM, HSA 6x10^-4 M assumed
# [37] = target: N,N′-diacetyl-Lys-D-Ala-D-Ala; remark: listed apart in the source
# [38] = target: human albumin (Homo sapiens, UniProt P02768); assay: Protein binding by isothermal titration microcalorimetry
# Procedure: (§1) Integrated heat effects, after correction for heats of dilution, were analyzed by non-linear regression using a simple single-site binding model with the standard Microcal ORIGIN software package. Raw data (μcal/sec) for each injection were integrated to give the total heat effect per addition, then divided by amount of injectant to give kcal/mole of injectant. The same integration was applied for control dilution effects, and this was subtracted from the actual titration data. This provided a differential of the binding curve in which the extent of binding is proportional to the total heat liberated (or absorbed). This was then analyzed by non-linear regression methods in terms of various standard binding models.
# [39] = tested on: human α-glycoprotein; assay: as above; settings: α-glycoprotein […]10^−5M
# Procedure: as §1
# [40] = target: N,N′-diacetyl-Lys-D-Ala-D-Ala; assay: ITC, 25 C, HSA 513 µM present
# [41] = target: N,N′-diacetyl-Lys-D-Ala-D-Ala; assay: ITC, 25 C, HSA 0 µM
# [42] = target: N,N′-diacetyl-Lys-D-Ala-D-Ala; assay: ITC, 25 C, asymptote of the non-competitive binding model
substance,measurement,setting,value
Dalbavancin (peptide),Ka,[1],28400 M⁻¹
same,Kd,[1],35.2 µM
same,ΔH,[1],-19.5 kcal/mol
same,ΔS,[1],-44.9 eu
same,Kd,[2],35 µM
same,Ka,[3],9570 M⁻¹
same,Kd,[3],105 µM
same,ΔH,[3],-26.6 kcal/mol
same,ΔS,[3],-67.6 eu
same,calculated percent bound,[4],73%
same,calculated percent bound,[5],16.9%
same,Ka,[6],50000 M⁻¹
same,Ka,[7],480000 M⁻¹
same,Ka,[8],280000 M⁻¹
same,Ka,[9],133000 M⁻¹
same,ΔH,[10],-10.3 kcal/mol (2×) and -8.95 kcal/mol
same,ΔS,[10],-9.6 eu and -4.3 eu and -9.9 eu
same,Ka,[11],31000 M⁻¹
same,Kd,[11],32.3 µM
same,ΔH,[11],-21.1 kcal/mol
same,ΔS,[11],-50 eu
same,calculated percent bound,[12],98%
same,Ka,[13],130000 M⁻¹ and 110000 M⁻¹
same,Kd,[13],7.69 µM and 9.09 µM
same,ΔH,[13],-12.5 kcal/mol and -17.4 kcal/mol
same,ΔS,[13],-16.8 eu and -33.2 eu
same,Kd,[14],1 to 10 µM
same,Ka,[15],34900 M⁻¹
same,Kd,[15],28.7 µM
same,ΔH,[15],-18.6 kcal/mol
same,ΔS,[15],-41.7 eu
same,Ka,[16],35000 M⁻¹
same,Kd,[16],28.6 µM
same,ΔH,[16],-20 kcal/mol
same,ΔS,[16],-46.2 eu
same,Kd,[17],3.1 µM
same,Ka,[18],62000 M⁻¹
same,Ka,[19],184000 M⁻¹
same,Ka,[20],310000 M⁻¹
same,Ka,[21],135000 M⁻¹
same,Ka,[22],138000 M⁻¹
same,Ka,[23],118000 M⁻¹
same,Kd,[23],8.47 µM
same,ΔH,[23],-27.8 kcal/mol and -26.4 kcal/mol
same,ΔS,[23],-70.1 eu and -65.5 eu
same,Kd,[24],1.4 µM
same,calculated percent bound,[25],68.2%
same,Ka,[26],21800 M⁻¹
same,Kd,[26],45.9 µM
same,ΔH,[26],-15 kcal/mol
same,ΔS,[26],-30.4 eu
same,calculated percent bound,[27],98.8%
same,Ka,[28],27600 M⁻¹
same,Kd,[28],36.2 µM
same,ΔH,[28],-16.9 kcal/mol
same,ΔS,[28],-36.5 eu
same,calculated percent bound,[29],26.2%
same,calculated percent bound,[30],98.5%
same,calculated percent bound,[31],5.9%
same,calculated percent bound,[32],98.7%
same,calculated percent bound,[33],98.6%
same,calculated percent bound,[34],11.4%
same,Kd,[35],8.4 µM
same,calculated percent bound,[36],98.8%
same,Ka,[37],12500 M⁻¹
same,Kd,[37],80 µM
same,ΔH,[37],-98.6 kcal/mol
same,ΔS,[37],-299 eu
Teicoplanin (peptide),calculated percent bound,[4],9.6%
same,Ka,[19],7000 M⁻¹
same,Ka,[21],96000 M⁻¹
same,calculated percent bound,[25],9.1%
same,calculated percent bound,[27],98.3%
same,calculated percent bound,[29],6%
same,calculated percent bound,[32],98%
same,calculated percent bound,[36],98.3%
Teicoplanin [reference compound],binding stoichiometry modeling (drug:protein),[38],1:1 binding
same,Calculated percent binding,"[38]; antibiotic 100 μM, human serum albumin 6×10^−4 M",98.0%
same,Calculated percent binding,[39]; antibiotic 1 μM,9.6%
same,Calculated percent binding,[39]; antibiotic 10 μM,9.1%
same,Calculated percent binding,[39]; antibiotic 100 μM,6.0%
"Vancomycin hydrochloride (Sigma V-2002, fw 1485.7) (peptide)",Ka,[40],290000 M⁻¹
same,Kd,[40],3.45 µM
same,ΔH,[40],-10.1 kcal/mol
same,ΔS,[40],-8.8 eu
same,Ka,[10],690000 M⁻¹
same,Kd,[10],1.45 µM
same,ΔH,[10],-9.49 kcal/mol
same,ΔS,[10],-6.8 eu
same,Ka,[41],340000 M⁻¹ and 360000 M⁻¹
same,Kd,[41],2.94 µM and 2.78 µM
same,ΔH,[41],-10.7 kcal/mol and -12.9 kcal/mol
same,ΔS,[41],-10.6 eu and -17.8 eu
dalbavancin-HSA complex (from UniProt P02768 25-609),Kd,[42],35 µM
